Measured values taken from paper PMC6056499, “A systematic dissection of sequence elements determining β-Klotho and FGF interaction and signaling” (Scientific Reports, 2018).

Key:
[1] = biological target: mature human FGF21 (UniProt Q9NSA1); assay: solid-phase binding assay; conditions: β-Klotho captured from conditioned media; parent: est. 1.0; read off a plot
[2] = biological target: human β-Klotho extracellular domain (aa1–992) fused with a 6 × His tag at the C-terminus (UniProt Q86Z14); assay: AlphaScreen; conditions: parent: est. 1.0, read off a plot
[3] = competition with FGF19 for β-Klotho
[4] = competition with FGF21 for β-Klotho

human β-Klotho extracellular domain (aa1–992) fused with a 6 × His tag at the C-terminus, sequence (Q86Z14 53-992): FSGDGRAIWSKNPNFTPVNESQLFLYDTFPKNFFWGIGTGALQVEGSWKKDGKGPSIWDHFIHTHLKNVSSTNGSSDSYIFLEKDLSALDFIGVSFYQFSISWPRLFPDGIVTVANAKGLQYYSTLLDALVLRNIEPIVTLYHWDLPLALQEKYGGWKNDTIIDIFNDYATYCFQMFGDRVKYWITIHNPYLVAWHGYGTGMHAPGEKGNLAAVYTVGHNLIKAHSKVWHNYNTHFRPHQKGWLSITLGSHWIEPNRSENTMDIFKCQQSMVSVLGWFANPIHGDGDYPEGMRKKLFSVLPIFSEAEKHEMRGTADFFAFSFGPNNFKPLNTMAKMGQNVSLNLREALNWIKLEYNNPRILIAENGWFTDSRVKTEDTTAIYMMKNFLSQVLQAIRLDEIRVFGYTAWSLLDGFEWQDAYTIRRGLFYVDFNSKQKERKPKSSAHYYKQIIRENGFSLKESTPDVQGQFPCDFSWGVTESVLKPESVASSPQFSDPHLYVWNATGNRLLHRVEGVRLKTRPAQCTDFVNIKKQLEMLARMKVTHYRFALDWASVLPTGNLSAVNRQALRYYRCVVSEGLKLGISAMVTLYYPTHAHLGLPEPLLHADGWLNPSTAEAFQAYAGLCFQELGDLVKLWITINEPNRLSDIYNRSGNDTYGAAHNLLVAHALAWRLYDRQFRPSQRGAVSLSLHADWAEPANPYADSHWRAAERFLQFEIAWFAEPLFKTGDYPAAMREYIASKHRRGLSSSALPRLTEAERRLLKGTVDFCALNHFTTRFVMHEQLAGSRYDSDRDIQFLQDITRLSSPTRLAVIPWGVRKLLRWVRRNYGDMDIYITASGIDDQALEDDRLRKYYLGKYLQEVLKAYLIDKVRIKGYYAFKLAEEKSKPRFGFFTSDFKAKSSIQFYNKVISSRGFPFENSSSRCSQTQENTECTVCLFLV
FGF19 C-terminal peptide, WT FGF19^185–216 (from UniProt O95750) 193E-A, sequence (O95750 185-216, change not shown): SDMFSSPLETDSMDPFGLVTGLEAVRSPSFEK
FGF19 C-terminal peptide, WT FGF19^185–216 (from UniProt O95750) 210R-A, sequence (O95750 185-216, change not shown): as above
FGF19 C-terminal peptide, WT FGF19^185–216 (from UniProt O95750) 190S-A, sequence (O95750 185-216, change not shown): as above
FGF19 C-terminal peptide, WT FGF19^185–216 (from UniProt O95750) 205G-A, sequence (O95750 185-216, change not shown): as above
FGF19 C-terminal peptide, WT FGF19^185–216 (from UniProt O95750) 185S-A, sequence (O95750 185-216, change not shown): as above
FGF19 C-terminal peptide, WT FGF19^185–216 (from UniProt O95750) 206L-A, sequence (O95750 185-216, change not shown): as above
FGF19 C-terminal peptide, WT FGF19^185–216 (from UniProt O95750) 188F-A, sequence (O95750 185-216, change not shown): as above
FGF19 C-terminal peptide, WT FGF19^185–216 (from UniProt O95750) 197M-A, sequence (O95750 185-216, change not shown): as above
FGF19 C-terminal peptide, WT FGF19^185–216 (from UniProt O95750) 195D-A, sequence (O95750 185-216, change not shown): as above
FGF19 C-terminal peptide, WT FGF19^185–216 (from UniProt O95750) 187M-A, sequence (O95750 185-216, change not shown): as above
FGF19 C-terminal peptide, WT FGF19^185–216 (from UniProt O95750) 216K-A, sequence (O95750 185-216, change not shown): as above
FGF19 C-terminal peptide, WT FGF19^185–216 (from UniProt O95750) 189S-A, sequence (O95750 185-216, change not shown): as above
FGF19 C-terminal peptide, WT FGF19^185–216 (from UniProt O95750) 213S-A, sequence (O95750 185-216, change not shown): as above
FGF19 C-terminal peptide, WT FGF19^185–216 (from UniProt O95750) 214F-A, sequence (O95750 185-216, change not shown): as above

Substance | ratio to parent [1] | ratio to parent [2, 3] | ratio to parent [2, 4]
human β-Klotho extracellular domain (aa1–992) fused with a 6 × His tag at the C-terminus (from UniProt Q86Z14) 531E-A | 4.5 |  | 
human β-Klotho extracellular domain (aa1–992) fused with a 6 × His tag at the C-terminus (from UniProt Q86Z14) 431T-R | 10 |  | 
FGF19 C-terminal peptide, WT FGF19^185–216 (from UniProt O95750) 188F-A |  | 2.7 | 1.4
FGF19 C-terminal peptide, WT FGF19^185–216 (from UniProt O95750) 214F-A |  | 220 | 
FGF19 C-terminal peptide, WT FGF19^185–216 (from UniProt O95750) 210R-A |  | 1.2 | 1.4
FGF19 C-terminal peptide, WT FGF19^185–216 (from UniProt O95750) 189S-A |  | 1.7 | 1.3
FGF19 C-terminal peptide, WT FGF19^185–216 (from UniProt O95750) 187M-A |  | 1.2 | 0.9
human β-Klotho extracellular domain (aa1–992) fused with a 6 × His tag at the C-terminus (from UniProt Q86Z14) 389G-A | 30 |  | 
FGF19 C-terminal peptide, WT FGF19^185–216 (from UniProt O95750) 185S-A |  | 1.4 | 0.8
human β-Klotho extracellular domain (aa1–992) fused with a 6 × His tag at the C-terminus (from UniProt Q86Z14) 381P-R | 21 |  | 
human β-Klotho extracellular domain (aa1–992) fused with a 6 × His tag at the C-terminus (from UniProt Q86Z14) 389G-R | 3.5 |  | 
FGF19 C-terminal peptide, WT FGF19^185–216 (from UniProt O95750) 205G-A |  | 1.3 | 1.4
FGF19 C-terminal peptide, WT FGF19^185–216 (from UniProt O95750) 206L-A |  | 0.9 | 0.8
FGF19 C-terminal peptide, WT FGF19^185–216 (from UniProt O95750) 213S-A |  | 90 | 
human β-Klotho extracellular domain (aa1–992) fused with a 6 × His tag at the C-terminus (from UniProt Q86Z14) 862L-R | 25 |  | 

Second part, the substance after the results:

ratio to parent [1] | ratio to parent [2, 3] | ratio to parent [2, 4] | Substance
270 |  |  | human β-Klotho extracellular domain (aa1–992) fused with a 6 × His tag at the C-terminus (from UniProt Q86Z14) 437K-A
35 |  |  | human β-Klotho extracellular domain (aa1–992) fused with a 6 × His tag at the C-terminus (from UniProt Q86Z14) 380K-A
 | 5.5 | 4.5 | FGF19 C-terminal peptide, WT FGF19^185–216 (from UniProt O95750) 195D-A
6 |  |  | human β-Klotho extracellular domain (aa1–992) fused with a 6 × His tag at the C-terminus (from UniProt Q86Z14) 862L-A
 | 2.9 | 1.4 | FGF19 C-terminal peptide, WT FGF19^185–216 (from UniProt O95750) 190S-A
 | 0.8 | 0.3 | FGF19 C-terminal peptide, WT FGF19^185–216 (from UniProt O95750) 197M-A
5 |  |  | human β-Klotho extracellular domain (aa1–992) fused with a 6 × His tag at the C-terminus (from UniProt Q86Z14) 437K-R
5 |  |  | human β-Klotho extracellular domain (aa1–992) fused with a 6 × His tag at the C-terminus (from UniProt Q86Z14) 381P-A
15 |  |  | human β-Klotho extracellular domain (aa1–992) fused with a 6 × His tag at the C-terminus (from UniProt Q86Z14) 861R-A
 | 0.3 | 0.3 | FGF19 C-terminal peptide, WT FGF19^185–216 (from UniProt O95750) 193E-A
 | 0.2 | 0.2 | FGF19 C-terminal peptide, WT FGF19^185–216 (from UniProt O95750) 216K-A
